Reference: patent US20230357354A1, “CD38-BINDING CD31 PEPTIDES AND USES THEREOF” (ENCEFA, priority 2020, published 2023)

Target: recombinant His-tagged CD38 (Homo sapiens, UniProt P28907)
Experiment: Pepscan-based ELISA of His-tagged CD38 on CD31 peptide arrays
Format: binding
Settings: sample with the highest signal; for Value (binding intensity of His-tagged CD38), LOOP7 conformational peptide array: mimic type LOOP7 (single loop, mP2 CLIPS); for Value (binding intensity of His-tagged CD38), LOOP15 conformational peptide array: mimic type LOOP15 (single loop, mP2 CLIPS)
Excerpt: Different sets of sCD31 peptides were synthesized according to the following designs. Note that actual order of peptides on mini-cards in some was randomized. • Set #1 • Mimic type: linear • Label: LIN15 • Linear peptides of 15 consecutive amino acid residues in length, derived from the target sequence of sCD31 with an offset of […]. • Set #2 • Mimic type: single loop (mP2 CLIPS) • Label: LOOP7 • Constrained peptides of 9 amino acid residues in length. On positions 2-8 are incorporated 7 consecutive amino acid residues derived from the target sequence of sCD31 with an offset of 1.3 residues. Cys residues were inserted on positions 1 and 9 and joined by mP2 CLIPS in order to create a loop mimic. Native Cys residues, if present, were replaced by Ser residues. • Set #3 • Mimic type: single loop, (mP2 CLIPS) • Label: LOOP15 • Constrained peptides of 17 amino acid residues in length. On positions 2-16 are incorporated 15 consecutive amino acid residues derived from the target sequence of sCD31 with an offset of […]. Cys residues were inserted on positions 1 and 17 and joined by mP2 CLIPS in order to create a loop mimic. Native Cys residues, if present, were replaced by Ser residues. • Set #4 • Mimic type: β-turn peptide mimics (mP2 CLIPS) • Label: BET • β-turn peptide mimics of 22 amino acid residues in length. On positions 2-21 are incorporated 20 consecutive amino acid residues derived from the target sequence of sCD31 with an offset of 1.3 residues. Residues on positions 11 and 12 are replaced by a Pro-Gly motif in order to induce the β-turn formation. Cys residues were inserted on positions 1 and 22 and joined by mP2 CLIPS in order to stabilize the mimic. Native Cys residues, if present, were replaced by Ser residues.
To reconstruct epitopes of sCD31, a library of peptide-based peptide mimics was synthesized using Fmoc-based solid-phase peptide synthesis. An amino functionalized polypropylene support was obtained by grafting with a hydrophilic polymer formulation, followed by reaction with t-butyloxycarbonyl-hexamethylenediamine (BocHMDA) using dicyclohexylcarbodiimide (DCC) with N-hydroxybenzotriazole (HOBt) and subsequent cleavage of the Boc-groups using trifluoroacetic acid (TFA).
Standard Fmoc-peptide synthesis was used to synthesize peptides on the amino-functionalized solid support by custom modified JANUS liquid handling stations (Perkin Elmer).
Synthesis of structural mimics was done using CLIPS technology. CLIPS technology allows to structure peptides into single loops, double loops, triple loops, sheet-like folds, helix-like folds, and combinations thereof. CLIPS templates are coupled to cysteine residues. The side-chains of multiple cysteines in the peptides are coupled to one or two CLIPS templates. For example, a 0.5 mM solution of the P2 CLIPS (2,6-bis(bromomethyl)pyridine) is dissolved in ammonium bicarbonate (20 mM, pH 7.8)/acetonitrile (1:3, v/v). This solution is added onto the peptide arrays. The CLIPS template binds to side-chains of two cysteines as present in the solid-phase bound peptides of the peptide-arrays (455 wells plate with 3-µL wells). The peptide arrays are gently shaken in the solution for 30 to 60 minutes while completely covered in solution.
Finally, the peptide arrays are washed extensively with excess of H2O and sonicated in disrupt-buffer containing 1% SDS / 0.1 % 2,2′-(ethylenedioxy)diethanethiol in PBS (pH 7.2) at 70° C. for 30 minutes, followed by sonication in H2O for another 45 minutes.
The binding of the sample (recombinant His-tagged CD38; 9 µg/mL and 20 µg/mL) to each of the synthesized peptides was tested in a pepscan-based ELISA. The peptide arrays were incubated with primary sample solution (overnight at 4° C.). […]

| Substance | Value (binding intensity of His-tagged CD38), LOOP7 conformational peptide array | Value (binding intensity of His-tagged CD38), LOOP15 conformational peptide array |
| --- | --- | --- |
| 206 (CVNITELFC) [compound 206] | 625 mAU | – |
| 207 (CNITELFSC) [compound 207] | 512 mAU | – |
| 208 (CRISYDAQC) [compound 208] | 287 mAU | – |
| 209 (CSYDAQFEC) [compound 209] | 570 mAU | – |
| 210 (CYDAQFEVC) [compound 210] | 628 mAU | – |
| 211 (CDAQFEVIC) [compound 211] | 429 mAU | – |
| 212 (CNPTEDVEC) [compound 212] | 402 mAU | – |
| 213 (CPTEDVEYC) [compound 213] | 407 mAU | – |
| 214 (CDVEYQSVC) [compound 214] | 556 mAU | – |
| 215 (CDEVQISIC) [compound 215] | 378 mAU | – |
| 216 (CEVQISILC) [compound 216] | 529 mAU | – |
| 217 (CVQISILSC) [compound 217] | 416 mAU | – |
| 218 (CESGEDIVC) [compound 218] | 420 mAU | – |
| 219 (CSGEDIVLC) [compound 219] | 573 mAU | – |
| 220 (CGEDIVLQC) [compound 220] | 442 mAU | – |
| 221 (CDIVLQSAC) [compound 221] | 389 mAU | – |
| 222 (CKEQEGEYC) [compound 222] | 385 mAU | – |
| 223 (CQEGEYYSC) [compound 223] | 619 mAU | – |

| Substance | Value (binding intensity of His-tagged CD38), LOOP7 conformational peptide array | Value (binding intensity of His-tagged CD38), LOOP15 conformational peptide array |
| --- | --- | --- |
| 224 (CEGEYYSTC) [compound 224] | 650 mAU | – |
| 225 (CGEYYSTAC) [compound 225] | 552 mAU | – |
| 226 (CYYSTAFNC) [compound 226] | 477 mAU | – |
| 227 (CHVKPQHQMLFYKDDVC) [compound 227] | – | 431 mAU |
| 228 (CVKPQHQMLFYKDDVLC) [compound 228] | – | 411 mAU |
| 229 (CKPQHQMLFYKDDVLFC) [compound 229] | – | 467 mAU |
| 230 (CQHQMLFYKDDVLFYNC) [compound 230] | – | 600 mAU |
| 231 (CHQMLFYKDDVLFYNIC) [compound 231] | – | 564 mAU |
| 232 (CQMLFYKDDVLFYNISC) [compound 232] | – | 646 mAU |
| 233 (CMLFYKDDVLFYNISSC) [compound 233] | – | 630 mAU |
| 234 (CLFYKDDVLFYNISSMC) [compound 234] | – | 497 mAU |
| 235 (CVLFYNISSMKSTESYC) [compound 235] | – | 371 mAU |
| 236 (CFYNISSMKSTESYFIC) [compound 236] | – | 552 mAU |
| 237 (CYNISSMKSTESYFIPC) [compound 237] | – | 370 mAU |
| 238 (CNISSMKSTESYFIPEC) [compound 238] | – | 478 mAU |
| 239 (CISSMKSTESYFIPEVC) [compound 239] | – | 499 mAU |
| 240 (CSSMKSTESYFIPEVRC) [compound 240] | – | 343 mAU |
| 241 (CMKSTESYFIPEVRIYC) [compound 241] | – | 325 mAU |
